Where no end group is shown, it is not given here. [ ]: non-standard residue; d: D form. Ahx = NCCCCCC(=O)O
What was measured:
[1] = target: T1, ICAM-1 on NOD mouse APC / spleen cells (mouse (NOD), UniProt P13597 28-537); experiment: flow cytometry on live APC, blocking by mAb
T1 construct: whole, on cells; Native ICAM-1 on live NOD spleen cells
Description: J. Immunol. 2337-2344 (1994). Spleen cell density-gradient fractions from normal (unimmunized) NOD, BALB/c and other MHC congenic strains were incubated in round bottom 96-well plates with increasing concentrations of individual biotinylated peptides at 37° C.,5% CO₂ for 16 hours. Following binding of the BPI to the APC, Avidin-FITC was incubated with the cells on ice for 30 minutes, followed bybiotinylated anti-Avidin for 1 hour, then again with Avidin-FITC. For BPI titrations, increasing concentrations (0.1-100 μM) of the biotinylated derivatives in sterile 0.5% BSA-PBS were incubated with the APC for 16 hours as above.
To test for competitive inhibition of BPI binding with unlabeled peptides or monoclonal antibodies to MHC-II and ICAM-1 on live APC, freshly isolated fractions of spleen cells were incubated with the previously biotinylated BPI. However, for this portion of the experiment, the experimental wells contained various unlabeled peptides (e.g., antigenic peptides or LFA-1 peptides), and/or monoclonal antibody (e.g., anti-MHC-II or anti-ICAM-1 mAb) inhibitors. Negative selection methods with monoclonal antibodies conjugated to magnetic particles were used to enrich the spleen cell fractions for B cells, macrophages, or dendritic cells as well as to examine differences in BPI binding to these different populations. […]

[2] = target: T1, ICAM-1 on NOD mouse APC / spleen cells; experiment: co-capping, fluorescence microscopy, T-depleted spleenocytes of NOD mice given the BPI i.v.
Description: To test the ability of the BPI peptide to link MHC-II and ICAM-1 molecules on the APC surface, we used a modification of a co-capping experiment originally described for monoclonal antibodies. […] Antibody-bound cells are then incubated with streptavidin (37 C×15 min.) to cap the MHC-II molecules on the APC surface. The cells were transferred to ice and labeled with a fluorescent (PE) monoclonal antibody to ICAM-1 (3E2). The cells are plated and observed for evidence that a given BPI links ICAM-1 into the MHC-II cap, i.e., by standard fluorescence microscopy and image analysis.

T1 sequence (P13597 28-537): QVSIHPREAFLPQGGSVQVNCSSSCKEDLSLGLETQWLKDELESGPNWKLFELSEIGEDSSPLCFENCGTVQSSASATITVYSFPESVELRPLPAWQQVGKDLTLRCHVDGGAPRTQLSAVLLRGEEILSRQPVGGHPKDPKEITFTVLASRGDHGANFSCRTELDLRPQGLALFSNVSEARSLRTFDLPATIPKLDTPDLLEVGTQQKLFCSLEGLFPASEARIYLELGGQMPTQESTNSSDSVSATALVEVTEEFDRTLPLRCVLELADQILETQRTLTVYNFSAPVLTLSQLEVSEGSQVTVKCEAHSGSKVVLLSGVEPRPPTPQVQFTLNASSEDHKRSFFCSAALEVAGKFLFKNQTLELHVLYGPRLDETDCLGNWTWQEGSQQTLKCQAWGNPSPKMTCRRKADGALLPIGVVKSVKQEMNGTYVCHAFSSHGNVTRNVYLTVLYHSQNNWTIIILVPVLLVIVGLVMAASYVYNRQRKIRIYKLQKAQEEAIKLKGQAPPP

Row | binding result [1] | binding result [2] | Binder
1 | binds | – | EIAPVFVLLE[Ahx]G[Ahx]G[Ahx]ITDGEATDSG (also: biotinylated with NHS-Biotin, site not given here, also called diabetes BPI; GAD 65 BPI) [biotinylated EGAD-BPI (GAD65(208-217)-[Ac-G-Ac-G-Ac]-CD11a (237-247))]
2 | – | binds | EIAPVFVLLE[Ahx]G[Ahx]G[Ahx]ITDGEATDSG (also called diabetes BPI) [EGAD-BPI (GAD65(208-217)-[Ac-G-Ac-G-Ac]-CD11a (237-247)), unlabeled]
